Residue numbers refer to the chain shown, from its start. Numbers in names are those of the source.
B1: AtSPDS1 (spermidine synthase 1) (Arabidopsis thaliana; D131I/Q107T/V134T) (protein)
chain: MDAKETSATDLKRPREEDDNGGAATMETENGDQKKEPACFSTVIPGWFSEMSPMWPGEAHSLKVEKVLFQGKSDYQDVIVFQSATYGKVLVLDGVIQLTERDECAYTEMITHLPLCSIPNPKKVLVIGGGIGGTLREVARHASIEQIDMCEIDKMVVDVSKQFFPDVAIGYEDPRVNLVIGDGVAFLKNAAEGSYDAVIVDSSDPIGPAKELFEKPFFQSVARALRPGGVVCTQAESLWLHMDIIEDIVSNCREIFKGSVNYAWTSVPTYPSGVIGFMLCSTEGPDVDFKHPLNPIDESSSKSNGPLKFYNAEIHSAAFCLPSFAKKVIESKAN
notes: pQE-30, N-terminal His tag, E. coli M15[pREP4], HisTrap purified
B2: AtSPDS1 (spermidine synthase 1) (Arabidopsis thaliana; D131I) (protein)
chain: B1 chain with T107Q, T134V
notes: as for B1
B3: AtSPDS1 (spermidine synthase 1) (Arabidopsis thaliana) (protein)
chain: B1 chain with T107Q, I131D, T134V
notes: as for B1

Legend:
Assay type in all cases: biochemical, Arabidopsis thaliana
[1] = substrate: NCCCCN; experiment: HPLC of dansylated N-methylputrescine, fluorimetric; conditions: PMT activity, co-substrate SAM, 20 mM HEPES pH 8.0, 37°C, 2 mM DTT, 1 mM ascorbic acid
From the text: (§1) HPLC of dansylated N-methylputrescine, fluorimetric on AtSPDS1 (spermidine synthase 1)

[2] = substrate: C[S+](CC[C@H](N)C(=O)O)C[C@H]1O[C@@H](n2cnc3c(N)ncnc32)[C@H](O)[C@@H]1O; experiment: as above; conditions: PMT activity, co-substrate putrescine, 20 mM HEPES pH 8.0, 37°C, 2 mM DTT, 1 mM ascorbic acid
From the text: as §1

[3] = substrate: C[S+](CCCN)C[C@H]1O[C@@H](n2cnc3c(N)ncnc32)[C@H](O)[C@@H]1O; experiment: HPLC of dansylated spermidine, fluorimetric; conditions: SPDS activity, co-substrate putrescine, 20 mM HEPES pH 8.0, 37°C, 2 mM DTT, 1 mM ascorbic acid
From the text: (§2) HPLC of dansylated spermidine, fluorimetric on AtSPDS1 (spermidine synthase 1)

[4] = substrate: NCCCCN; experiment: HPLC of dansylated spermidine, fluorimetric; conditions: SPDS activity, co-substrate dcSAM, 20 mM HEPES pH 8.0, 37°C, 2 mM DTT, 1 mM ascorbic acid
From the text: as §2

Row | Protein | Km [1] [µM] | kcat [1] [s⁻¹] | Km [2] [µM] | kcat [2] [s⁻¹] | Km [3] [µM] | kcat [3] [s⁻¹] | Km [4] [µM] | kcat [4] [s⁻¹]
1 | B1 | 32 ± 1.88 | 0.081 | 12 ± 0.60 | 0.081 | – | – | – | –
2 | B2 | 56 ± 4.45 | 0.00448 | 28 ± 0.77 | 0.00448 | – | – | – | –
3 | B3 | – | – | – | – | 18 ± 1.23 | 0.722 | 220 ± 18.44 | 0.722

Reference: article PMC3725402
